Source: patent publication US20180273621A1 (AstraZeneca / MedImmune, published 2018)

T1: human CD19 antigen (human, UniProt P15391 20-556)
T1 construct: whole, on cells; also called hCD19; recombinant human CD19
T1 sequence (looked up): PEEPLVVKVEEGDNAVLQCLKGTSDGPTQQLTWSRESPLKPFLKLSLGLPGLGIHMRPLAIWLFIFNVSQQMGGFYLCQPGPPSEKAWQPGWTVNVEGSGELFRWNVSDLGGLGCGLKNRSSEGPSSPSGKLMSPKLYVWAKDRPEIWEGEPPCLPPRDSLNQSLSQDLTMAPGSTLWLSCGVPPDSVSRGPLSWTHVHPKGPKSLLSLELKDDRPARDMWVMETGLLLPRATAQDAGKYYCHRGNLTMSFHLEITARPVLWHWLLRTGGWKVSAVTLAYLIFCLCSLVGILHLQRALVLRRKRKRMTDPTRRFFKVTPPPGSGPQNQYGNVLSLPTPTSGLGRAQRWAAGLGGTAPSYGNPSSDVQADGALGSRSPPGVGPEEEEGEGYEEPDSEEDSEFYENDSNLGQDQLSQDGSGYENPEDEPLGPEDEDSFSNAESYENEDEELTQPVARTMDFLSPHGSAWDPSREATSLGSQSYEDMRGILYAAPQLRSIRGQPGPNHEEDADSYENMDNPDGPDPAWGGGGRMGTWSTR


Tests used:
human CD19 antigen [1] = molecular target: T1, human CD19 antigen; experiment: cell based ECL binding assay (Meso Scale Discovery; Lu et al. 2006) on 300B4 cells as titled on the sheet, Fab supernatant, signal in Units
Protocol: (§1) CDR specific phage display libraries were generated as described above. Libraries were screened by testing a large number of phage clones (approximately 400 clones per library) in single point cell based binding assay (Lu et al., J. Immunol. Methods 314:74-79 (2006)). Reagents and disposables were purchased from Meso Scale Discovery; assays were performed following the manufacturer's instructions.
(§2) Combinatorial phage display libraries were prepared as described above. Individual Fab clones from the combinatorial library were tested for binding to 300B4 and Raji cells (Lu et al., J. Immunol. Methods 314:74-79 (2006)).

human CD19 antigen [2] = molecular target: T1, human CD19 antigen; experiment: cell based ECL binding assay (Meso Scale Discovery; Lu et al. 2006) on Raji cells as titled on the sheet, Fab supernatant, signal in Units
Protocol: as §1, §2

human CD19 antigen [3] = molecular target: T1, human CD19 antigen; experiment: cell-based or functional assay
human CD19 antigen [4] = molecular target: T1, human CD19 antigen; experiment: cell based ECL binding assay (Meso Scale Discovery; Lu et al. 2006) on 300B4 cells expressing recombinant human CD19, Fab supernatant, signal in Units
Protocol: as §1

human CD19 antigen [5] = molecular target: T1, human CD19 antigen; experiment: cell based ELISA on 300B4 cells expressing recombinant human CD19, OD450
Protocol: 300B4 cells were cultured according to standard protocols in RPMI 1640 medium containing L-glutamine and supplemented with 10% Fetal Calf Serum, β-mercaptoethanol in the presence of 1 mg/ml G418. A standard ELISA protocol can be used for the cell based CD19 binding assay. […] Binding reactions are performed in triplicates for each antibody concentration tested. Negative control wells using an isotype matched antibody of irrelevant specificity should be included in the assay. Following incubation with the antibody 300B4 cells are washed three times with 200 micro liter of ELISA buffer. The amount of chimeric, humanized, or human anti-CD19 antibodies bound to 300B4 cells can be detected using a goat anti-human kappa antibody conjugated with horseradish peroxidase according to standard protocols.

| EC50 (read off the curve) (human CD19 antigen [1]) [ng/mL] | ADCC EC50, Daudi target cells (human CD19 antigen [3]) [ng/mL] | ADCC EC50, Farage target cells (human CD19 antigen [3]) [ng/mL] | ADCC EC50, Karpas-1106P target cells (human CD19 antigen [3]) [ng/mL] | ADCC EC50, RL target cells (human CD19 antigen [3]) [ng/mL] | ADCC EC50, Raji target cells (human CD19 antigen [3]) [ng/mL] | ADCC EC50, Toledo target cells (human CD19 antigen [3]) [ng/mL] | Binder | % max. cell kill at 10 ug/ml, DB target cells (human CD19 antigen [3]) [%] | % max. cell kill at 10 ug/ml, Daudi target cells (human CD19 antigen [3]) [%] | % max. cell kill at 10 ug/ml, Farage target cells (human CD19 antigen [3]) [%] | % max. cell kill at 10 ug/ml, Granta-519 target cells (human CD19 antigen [3]) [%] | % max. cell kill at 10 ug/ml, Karpas-422 target cells (human CD19 antigen [3]) [%] | % max. cell kill at 10 ug/ml, Karpas-1106P target cells (human CD19 antigen [3]) [%] | % max. cell kill at 10 ug/ml, Nalm-6 target cells (human CD19 antigen [3]) [%] | % max. cell kill at 10 ug/ml, Namalwa target cells (human CD19 antigen [3]) [%] | % max. cell kill at 10 ug/ml, Oci-LY19 target cells (human CD19 antigen [3]) [%] | % max. cell kill at 10 ug/ml, RL target cells (human CD19 antigen [3]) [%] | % max. cell kill at 10 ug/ml, Raji target cells (human CD19 antigen [3]) [%] | % max. cell kill at 10 ug/ml, Toledo target cells (human CD19 antigen [3]) [%] | further results |
| --- | --- | --- | --- | --- | --- | --- | --- | --- | --- | --- | --- | --- | --- | --- | --- | --- | --- | --- | --- | --- |
| ~400 |  |  |  |  |  |  | 3C3 affinity matured Fab (16C4 variant) (Fab, V domains shown, Fab) VH: EVQLVESGGGLVQPGGSLRLSCAASGFTFSSVWMNWVRQAPGKGLEWVGRIYPGDGDTNYNVKFKGRFTISRDDSKNSLYLQMNSLKTEDTAVYYCARSGFITTVRDFDYWGQGTLVTVSS VL: EIVLTQSPDFQSVTPKEKVTITCRASESVDHFGISFINWFQQKPDQSPKLLIHEASNPYSGVPSRFSGSGSGTDFTLTINSLEAEDAATYYCAQSKEVPITFGGGTKVEIK |  |  |  |  |  |  |  |  |  |  |  |  | EC50 (read off the curve) (human CD19 antigen [2]): ~300 ng/mL |
|  | 0.0576 | 0.0927 | 0.533 | 0.0393 | 0.012 | 0.0545 | 16C4 affinity matured anti-CD19 IgG antibody (antibody, V domains shown) VH: EVQLVESGGGLVQPGGSLRLSCAASGFTFSSSWMNWVRQAPGKGLEWVGRIYPGDGDTNYNVKFKGRFTISRDDSKNSLYLQMNSLKTEDTAVYYCARSGFITTVRDFDYWGQGTLVTVSS VL: EIVLTQSPDFQSVTPKEKVTITCRASESVDTFGISFMNWFQQKPDQSPKLLIHEASNQGSGVPSRFSGSGSGTDFTLTINSLEAEDAATYYCQQSKEVPFTFGGGTKVEIK | 6 | 16 | 13 | 0 | 6 | 16 | 17 | 4 | 6 | 15 | 26 | 12 |  |
|  |  |  |  |  |  |  | 16C4 Fab (Fab, V domains shown, Fab with human γ1 CH1 and human kappa constant domain; also called Clone 16C4; 16C4sup) VH: EVQLVESGGGLVQPGGSLRLSCAASGFTFSSSWMNWVRQAPGKGLEWVGRIYPGDGDTNYNVKFKGRFTISRDDSKNSLYLQMNSLKTEDTAVYYCARSGFITTVRDFDYWGQGTLVTVSS VL: EIVLTQSPDFQSVTPKEKVTITCRASESVDTFGISFMNWFQQKPDQSPKLLIHEASNQGSGVPSRFSGSGSGTDFTLTINSLEAEDAATYYCQQSKEVPFTFGGGTKVEIK |  |  |  |  |  |  |  |  |  |  |  |  | EC50 (read off the curve) (human CD19 antigen [4]): ~1000 ng/mL |
|  | 0.0576 | 0.0536 | 0.0142 | 0.0194 | 0.009 | 0.0155 | afucosylated 3649 anti-CD19 antibody (antibody, human IgG1, V domains shown, complex N-glycoside-linked sugar chains linked to Asn297 of the Fc region in which fucose is not bound to N-acetylglucosamine in the reducing end) VH: EVQLVESGGGLVQPGGSLRLSCAASGFTFSSSWMNWVRQAPGKGLEWVGRIYPGDGDTNYNGKFKGRFTISRDDSKNSLYLQMNSLKTEDTAVYYCARSGFITTVLDFDYWGQGTLVTVSS VL: EIVLTQSPDFQSVTPKEKVTITCRASESVDTFGISFMNWFQQKPDQSPKLLIHAASNQGSGVPSRFSGSGSGTDFTLTINSLEAEDAATYYCQQSKEVPFTFGGGTKVEIK | 42 | 51 | 48 | 9 | 64 | 59 | 39 | 25 | 54 | 46 | 44 | 53 | ADCC EC50, Karpas-422 target cells (human CD19 antigen [3]): 0.0442 ng/mL; ADCC EC50, Nalm-6 target cells (human CD19 antigen [3]): 0.0605 ng/mL; ADCC EC50, Namalwa target cells (human CD19 antigen [3]): 0.04 ng/mL; ADCC EC50, Oci-LY19 target cells (human CD19 antigen [3]): 0.0518 ng/mL |
|  |  |  |  |  |  |  | humanized anti-CD19 antibody #2 comprising HB12B-(3-72/JH4) VH, HB12B-3649 VK, and IgG1 heavy chain constant region (antibody, V domains shown, also called humanized HB12B antibody #2) VH: EVQLVESGGGLVQPGGSLRLSCAASGFTFSSSWMNWVRQAPGKGLEWVGRIYPGDGDTNYNGKFKGRFTISRDDSKNSLYLQMNSLKTEDTAVYYCARSGFITTVLDFDYWGQGTLVTVSS VL: EIVLTQSPDFQSVTPKEKVTITCRASESVDTFGISFMNWFQQKPDQSPKLLIHAASNQGSGVPSRFSGSGSGTDFTLTINSLEAEDAATYYCQQSKEVPFTFGGGTKVEIK |  |  |  |  |  |  |  |  |  |  |  |  | EC50 (read off the curve) (human CD19 antigen [5]): ~80 ng/mL |
| ~400 |  |  |  |  |  |  | 5C4 affinity matured Fab (Fab, V domains shown, Fab) VH: EVQLVESGGGLVQPGGSLRLSCAASGFTFSSVWMNWVRQAPGKGLEWVGRIYPGDGDTNYNVKFKGRFTISRDDSKNSLYLQMNSLKTEDTAVYYCARSGFITTVRDFDYWGQGTLVTVSS VL: EIVLTQSPDFQSVTPKEKVTITCRASESVITFGISFINWFQQKPDQSPKLLIHEASNPYSGVPSRFSGSGSGTDFTLTINSLEAEDAATYYCAQTKRVPFTFGGGTKVEIK |  |  |  |  |  |  |  |  |  |  |  |  |  |
